Assay: yeast display, Sf9 membrane polyspecificity reagent, FACS + sequencing; frameworks hold sequencing errors
Outline: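 Nanobodies from a synthetic yeast display library (Saccharomyces cerevisiae BJ5465), induced 36–48 hours with galactose, were stained 1 hour at 4 °C with 10% biotinylated, detergent-solubilized Sf9 membrane reagent, enriched on streptavidin microbeads, then FACS-sorted. Anti-HA (expression) and streptavidin (reagent binding) fluorescence set low and high (top ~1%) gates. Polyreactivity labels come from the gate of origin. Genes were colony-PCR amplified, MiSeq 2 × 250 sequenced and filtered by CDR length.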

Sequence	polyreactivity (PSR sort gate)
QVQLVESGGGLVQAGGSLRLSCAASGRTFKRYAMGWYRQAPGNERELVAAIRRGGITNYADSVKGRFTISRDNAKNTVYLQMNSLKPEDTAVYYCAKDGVTYPYSYEYDYWGLGTQVTVSS	low polyreactivity
QVQHVESGGGLVQAGGSNRLSCAASAFIFRSNAMGWYRQAAGKEREFVPAISSRGGSTTYADSVKGRFTISRDNAKITVYLQMKSLKPEDTAVYYCARDCYYYPQYRKRYYYWGQGTQVSVSS	high polyreactivity
QVQLVESGGGLVQAGGSLRLSCAASVSIFYEYTMGWYRQAPGKERELVADITEGDGITYYADSVKGRFTISRDNAKNTVYLQMNSLKPEDTAVYYCNADVVQAVTTHYDYWGQGTQVTVSS	low polyreactivity
QVQLVESGGGLVQAGGSLRLSCAASGNTFEYYTMGWYRKAPGKERELVASIDWSTTSTYYADSVKGRFTISRDNAKNTVYLQMNSLKPEDTAVYYCNTVYDYYHLGLYSGFRYHYWGQGTQGTVSS	low polyreactivity
QVQLVESGGGLVPAGGSLRLSCAASGFIFQWYAMGWYRQAPGKERELVAAISSSGGSTYYADSVKGRFTISRDNAKNTVYLQMNSLKPEDTAVYYCAAVWASYPYRGVDYWGQGTQVTVSS	high polyreactivity
QVQLQESGGGLVQAGGSLRLSCSASGYISHADEMGWYRQAPGKEHELVASISNGGSTNYADSVKGRFTISRDNAKNTVYLQMNSLKSEDTAVYYCAAWTGQVDIHYYWGQGTQVTVSS	low polyreactivity
QVQLVESGGGLVQAGGSLRISCAPSGITLRRNAMGRYRQAPGKERELVARISTTGGSTYYADSVKGRFTISRDNAKNTVYLQMNSLKPEDTAVYYCAARAPLGFWHYDYWGQGTQVTVSS	high polyreactivity
QGQLVESGGGLVQAGGSLRLSCAASGSIFDLNAMGWYRQAPGKERELVAAISTGGGTYYADSVKGRFTISRDTAKNTVYLQMNRLKPEDTAVYYCNRVTRWTYNYWGQGTQVTVSS	high polyreactivity
QVQLVESGGGLVQAGGSLRLSCAASGSIFPAYAMGWYRQAPGKERELVASITGSGGSTYYADSVKGRFTISRDIAKNTVYLQMNSLKPEDTAVYYCNARYYVYSATVDRYYHFYYWGQGTQVTVSS	high polyreactivity
QVQLVESGGGIVQAGGSLRLSCAASGRIFVRYAMGWYRQAPGKERELVAAISKSGGSTYYADSVKGRFTISRENAKNTVYLQMYSLKPEDTAVYYCNALVRRRPGYIRYDYWGQGTQVTVSS	low polyreactivity
QVQLVESGGGLVQAGGSLRLSCAASGFIFPNNAMGWYRQAPGKERELVARISYGGGDTHYADSVKGRFTISRDTAKNTVYLQMNSLKPEDTAVYYCAVKDGQDDYWGQGTQVTVSS	low polyreactivity
QVQLVESGGGLVQAGGSLRLSCAASGRTFGGNAMGWNRHAPGKERELVAGINISGGSTNYADSVKGRYTISRDNAKNTVYLQMNSLKPEDSAVYYCNADTAVYAWDDDYWGQGTQVTVSS	low polyreactivity
PVQLVESGGGLVQAGGSLRLSCAACGGIFPGNAMGWYRQAPGKVRELVATISYSGGSTYYADSVKGRLTISRDNAKNTVYLQMNSLKPEATAVYYCAARGYKPTRSRRTEYGYWGQGTQVTVSS	high polyreactivity
QVQLVESGGGLVQAGGSLRLSCAASGFIFTPYAMGWYRQAPGKEREFVATITWSGGSTNYADSVKGRFTISRDNAKNTVYLQMNSLKPEDTAVYYCNADTWSPNDYWGQGTQVTVSS	low polyreactivity
QVQLVESGGGLVQAGGSLRLSCAASGGTIVYYAMGWYREAPGKERELVAAINWSGGSTYYADSVKGRFTISRDKAKNTVYLQMNSLKPEDTAVLLLQRSGLRRSGVWFDYWGQGTQVTVSS	low polyreactivity
QVQLVESGGGLVQAGGSLRLSCAASGFTFREYAMGWYRQAPGKERELVAAIDWSGGSTYYADSVKGRFTISRDNAKNTVYLQMNRLKPEDTAVYYCNVDFYDWYVYLWYVDYDYCGQGTQVTVSS	high polyreactivity
QVQLVESGGGLVQAGGSLRLSCAASGLTFYTYAMGWYRQAPGKERELVAAISSGGSTNYADSVKGRFTISRDNAKNTVYLQMNSLKPEDTAVYYCAADPSYYTYFSFDLSESDYWGLGTQVTVSS	low polyreactivity
